# Experimental data reported in patent US20170247716A1 (PIONEER HI BRED INTERNATIONAL, published 2017).
# T1: AtRTE1-Cub-PLV (Arabidopsis, UniProt F4ITL6 1-250)
# T1 construct: Bait of the mating-based split-ubiquitin yeast two-hybrid system; also called AtRTE1 bait construct; not shown: C-terminal half of ubiquitin (Cub); synthetic transcription factor PLV (protease A-LexA-VP16)
# T1 sequence (looked up): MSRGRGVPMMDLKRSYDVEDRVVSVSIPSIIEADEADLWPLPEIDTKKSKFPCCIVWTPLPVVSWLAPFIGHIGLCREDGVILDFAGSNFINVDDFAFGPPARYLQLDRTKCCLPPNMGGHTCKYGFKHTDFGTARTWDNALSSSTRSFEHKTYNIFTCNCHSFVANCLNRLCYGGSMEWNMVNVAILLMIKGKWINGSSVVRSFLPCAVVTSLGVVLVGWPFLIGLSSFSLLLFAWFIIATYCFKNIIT
# B1: AtARL-NubG (other, UniProt Q8RXL7 1-135, looked up)
# chain: MIREFSSLQNDIINIQEHYSLNNNMDVRGDHNRKNTSFRGSAPAPIMGKQELFRTLSSQNSPRRLISASYFSLESMVVLVGLTASLLILPLILPPLPPPPFMLLLIPIGIMVLLMVLAFMPSSNSKHVSSSSTFM
# notes: Prey of the split-ubiquitin yeast two-hybrid system; also called Arabidopsis ARGOS-LIKE (ARL); not shown: N-terminal half of a mutated ubiquitin (NubG)
# Assays:
# AtRTE1-Cub-PLV = molecular target: T1, AtRTE1-Cub-PLV; assay: yeast split-ubiquitin two-hybrid
# Experimental: (§1) (B) β-Galactosidase assay for yeast diploid cells expressing AtRTE1-Cub-PLV and various ARGOS-NubG fusion proteins. Yeast cells were cultured in SC-Leu-Trp liquid medium. The β-Galactosidase (β-Gal) activity assay uses […] as a substrate. (C) Growth of yeast diploid cells from the mating of haploid strains containing ARGOS-NubG constructs and negative control […] construct. The plates were incubated at 28° C. for 4 days. (D) Liquid β-Galactosidase assay for yeast diploid cells expressing negative control AtCHX20-Cub-PLV and various ARGOS-NubG fusion proteins.
# (§2) (A) Growth of yeast diploid cells on SC dropout media to show protein-protein interaction of ZmRTL4 with Arabidopsis and maize ARGOS. The SC-Leu-Trp and SC-Leu-Trp-His-Ade media contain 134 and 375 μM Met, respectively. The plates were incubated at 28° C. for 4 days. (B) β-Galactosidase assay for yeast diploid cells expressing ZmRTE4-Cub-PLV and various ARGOS-NubG fusion proteins. (C) Growth of yeast diploid cells on SC dropout media to show protein-protein interaction of ZmRTL2 with Arabidopsis and maize ARGOS. The SC-Leu-Trp and SC-Leu-Trp-His-Ade media contain 134 μM Met. The plates were incubated at 28° C. for 5 days. (D) β-Galactosidase assay for yeast diploid cells expressing ZmRTE2-Cub-PLV and various ARGOS-NubG fusion proteins. […]
# AtARL-NubG = molecular target: B1; assay: yeast split-ubiquitin two-hybrid
# Experimental: as §1, §2
binding result (AtRTE1-Cub-PLV),binding result (AtARL-NubG),Binder
binds,–,B1
–,binds,"ZmRTL4-Cub-PLV (other, domain: C-terminal half of ubiquitin (Cub); Bait of the split-ubiquitin yeast two-hybrid system; the legend prints ZmRTE4-Cub-PLV; also called ZmRTE4-Cub-PLV; ZmRTL4 bait construct; not shown: C-terminal half of ubiquitin (Cub); synthetic transcription factor PLV (protease A-LexA-VP16)) MENDRRQLGQIDPRRARFPCCIVWTPIPFITWLVPFIGHIGICREDGVILDFSGPHFVSVDNFAFGAVARYIQVNCDECYKLIEPEGDATWDGALKKGTQEFQNRNYNLFTCNCHSFVANNLNRLFYSGHDEWNVVSLAAVMFLRGRWVSTASVVKTLLPFAVVLSIGTFLGGTTFLTGLLAFAAAMTVWFLVGTYCIKGLIEL"
